In patent US20170320924A1 (UNIVERSITY OF YAMANASHI, published 2017):

Molecular target: T1, human CLEC-2 (C-type lectin-like receptor 2) (human, UniProt Q9P126 1-229)
T1 construct: whole, on cells; also called T-REx human CLEC-2 expressing 293 cells
Assay: column 'CLEC-2 binding' of the summary Table 10

T1 sequence (Q9P126 whole entry): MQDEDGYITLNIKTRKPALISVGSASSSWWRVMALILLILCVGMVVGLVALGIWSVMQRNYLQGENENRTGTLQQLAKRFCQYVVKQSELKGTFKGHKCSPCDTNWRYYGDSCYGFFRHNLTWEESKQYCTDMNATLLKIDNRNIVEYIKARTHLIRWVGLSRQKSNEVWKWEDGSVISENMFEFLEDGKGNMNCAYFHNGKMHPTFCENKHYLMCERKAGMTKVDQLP

B1: mutant rhodocytin derived from cell No. 3 (R28A and K31A) (ligand)
alpha: GLEDCDFGWSPYDQHCYQAFNEQKTWDEAEKFCRAQENGAHLASIESNGEADFVSWLISQKDELADEDYVWIGLRAQNKEQQCSSEWSDGSSVSYENLIDLHTKKCGALEKLTGFRKWVNYYCEQMHAFVCKLLPY
beta: DCPSGWSSYEGHCYKPFNEPKNWADAEAFCALQPKHSHLVSFQSAEEADFVVKLTRPRLKANLVWMGLSNIWHGCNWQWSDGARLNYKDWQEQSECLAFRGVHTEWLNMDCSSTCSFVCKFKA
modifications: α and β subunits are disulfide-linked. BN-PAGE shows a heterotrimer; each distinct subunit is given once.
notes: also called R28A, K31A
Q: Does B1 bind?
A: binds
